Experimental findings from the supplement of paper PMC9170038 are described below.

In this series the test system is MS2 coat protein. Briefly: apparent KD of MS2 coat protein; designed switch direction (-1 OFF switch, 1 ON switch): 1; higher = weaker reporter binding. In outline: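 RNA switches sharing common flanks were transcribed by stalled E. coli RNA polymerase on Illumina chips. A doubling series of SNAP-549-labelled MS2 coat protein, from 0.7 or 1.5 nM to 3 µM, was applied in Tris-HCl pH 7.5 buffer with KCl, MgCl2, BSA, DTT, tRNA and Tween-20. Each step lasted 0.8–1.5 h at the bottom of the series and 10–20 min at the top. Normalised cluster fluorescence was curve-fitted, giving apparent KD as the per-design median over clusters.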

Where [1] appears, read: Eterna round: R95, input ligand: FMN 200 uM.
[2] abbreviates: Eterna round: R95, input ligand: microRNA oligo, concentration not stated.
Where [3] appears, read: Eterna round: R95, input ligand: none.
[4] abbreviates: input ligand: microRNA oligo, concentration not stated.

For the sequence “AGUCCUGAAUAAAUUAAACAGAGACAUGUACAUGAGGAUCACCCAUGUCAUGUACAAGUUCUAUGCUCGUCAUAUAA [Sensorship 19 - Jieux - Sensor for hsa-mir-208a] (puzzle: Sensor for hsa-mir-208a)”, the “apparent KD of MS2 coat protein” value by setting is: under setting [1], 23 nM; under setting [2], 14.6 nM; under setting [3], 24.7 nM.

In the case of “AUAAAACAUGAGGAUCACCCAUGUAGACACGAUGGAGGAUAUACUAGAUCGAAAGAUCUAGUAGAAGGCCGACGUA [Mat - Same State 1 - JL mod - D95] (Eterna round: R96, puzzle: Same State 1)”, the “apparent KD of MS2 coat protein” value runs as follows: (input ligand: FMN 200 uM) 21.8 nM; under setting [4], 15.6 nM; (input ligand: none) 19.7 nM.

Regarding “AUAAAACAUGAGGAUCACCCAUGUAGACGGAGAGCCGUCACAUAGGAUAUAGCCAGCGGUGUUGGCUAGAAGGGUGGUAGAAAA [Lavezaer] (Eterna round: R96, puzzle: Same State NG 3)”, the “apparent KD of MS2 coat protein” value (input ligand: FMN 200 uM) amounted to 59.8 nM, the “apparent KD of MS2 coat protein” value under setting [4] turned out to be 78.1 nM and the “apparent KD of MS2 coat protein” value (input ligand: none) came to 130 nM.

“AUAAAACAUGAGGAUCACCCAUGUCAACAAAGUCGAGGAUAUGGGCAUAUAAAAUAAGAACCAGAAGGCGAAUAAU [salish99_ss1_r3_026] (puzzle: Same State 1)”: the “apparent KD of MS2 coat protein” value was 32.2 nM under setting [1], 265 nM under setting [2] and 230 nM under setting [3].

As to “AUAACCCGUGCUAAGGAUAUGCGUACUCCUACAUGAGGAUCACCCAUGUCCCGCCGAAAAGGAAGGCAGAAGGUAGCACGGGCCG [Lasoleri] (puzzle: Same State 2)”, the “apparent KD of MS2 coat protein” value runs as follows: under setting [1], 45.7 nM; under setting [2], 84.9 nM; under setting [3], 126 nM.

In the case of “AUAAGGCAAGCUUUUUUCUCGUAGUGUAAACAUGAGGAUCACCCAUGUGCCCACCCUGGAUCUUUGGAUCGCGGAAC [Raxesori] (Eterna round: R96, puzzle: Sensor for hsa-mir-208a)”, the “apparent KD of MS2 coat protein” value is, setting by setting: (input ligand: FMN 200 uM) 103 nM; under setting [4], 21.8 nM; (input ligand: none) 90.5 nM.

Consider “AUAAGGCAAGCUUUUUUCUCGUAGUGUAAACAUGAGGAUCACCCAUGUGCCCACCCUGGAUCUUUGGAUCGCGGAAC [Raxesori] (puzzle: Sensor for hsa-mir-208a)”, for which the “apparent KD of MS2 coat protein” value is, setting by setting: under setting [1], 83.6 nM; under setting [2], 27.1 nM; under setting [3], 104 nM.

Turning to “AUAAGUUUGAUGCUCGUCUCUCCGUACAAACAUGAGGAUCACCCAUGUGGUCGGGAAGUAGCCCGGCCGGUAUGGCC [Atusri] (puzzle: Sensor for hsa-mir-208a)”, the “apparent KD of MS2 coat protein” value under setting [1] was 16.7 nM, the “apparent KD of MS2 coat protein” value under setting [2] amounted to 14.1 nM and the “apparent KD of MS2 coat protein” value under setting [3] turned out to be 15.8 nM.

For “AUAGUUAGCGAAGGAUAUGGGAAAGGAAGUGUACCAGAAGGUCGGCUACUGGGCUUACAUGAGGAUCACCCAUGUCCCGGUAGC [PowerStrip SSNG 1.13] (Eterna round: R96, puzzle: Same State NG 1)”, the “apparent KD of MS2 coat protein” value (input ligand: FMN 200 uM) is 10.1 nM, the “apparent KD of MS2 coat protein” value under setting [4] was found to be 9.15 nM and the “apparent KD of MS2 coat protein” value (input ligand: none) is 12.2 nM.

For “AUAGUUGCCGAAGGAUAUGAUGAGGAUCACCCAUCAGAAGGUUGGCUAUUGGGUGGACAUGAGGAUCACCCAUGUUCUUUGGUA (Eterna round: R96, puzzle: Same State NG 1)”, the “apparent KD of MS2 coat protein” value by setting is: (input ligand: FMN 200 uM) 64.2 nM; under setting [4], 107 nM; (input ligand: none) 140 nM.

With “AUAGUUGCCGAAGGAUAUGAUGAUGAUCACACAUCAGAAGGUCGGCUAUUGGGUGGACAUGAGGAUCACCCGUGUUCUUUGGUC (Eterna round: R96, puzzle: Same State NG 1)”, the “apparent KD of MS2 coat protein” value is, setting by setting: (input ligand: FMN 200 uM) 96.1 nM; under setting [4], 79.5 nM; (input ligand: none) 103 nM.

Turning to “AUAUAACAUGAGGAUCACCCAUGUCUCUAAAGUCGAGGAUAUGGGCAGGUUAUAUCCGAACCAGAAGGCGAAUUAU [SS1 Teenbexe 5] (puzzle: Same State 1)”, the “apparent KD of MS2 coat protein” value came to 56.3 nM under setting [1], 239 nM under setting [2] and 322 nM under setting [3].

Take “AUCAAAUACCUAGGAUAUAGUACACACAGCGGGCUAGAAGGAGGCGACCACGCUGACAUGAGGAUCACCCAUGUCCAACAGGAU [Eternabot solution 19] (Eterna round: R96, puzzle: Same State NG 1)”: the “apparent KD of MS2 coat protein” value by setting is: (input ligand: FMN 200 uM) 48.9 nM; under setting [4], 37.8 nM; (input ligand: none) 52.8 nM.

In the case of “AUCAAUCUAUCUCAGGAUAUCAUGUCAAAGACAUGAGGAUCACCCAUGUACCAGGAAACUGGUUAUGAGAAGGGAGAUAGAUUGA [Mat - Same State 2 - Mod - D30] (puzzle: Same State 2)”, the “apparent KD of MS2 coat protein” value was 56.2 nM under setting [1], 158 nM under setting [2] and 53.2 nM under setting [3].

As to “AUCCGGAAGCGAGGAUAUGCAGAGGAUCACCCUGCAGAAGGCGCAAAAGCGAGGAUAUGCAGAGGAUCACCCUGCAGAAGGCGC [pwkr ssNG DX.28] (Eterna round: R96, puzzle: Same State NG 1)”, the “apparent KD of MS2 coat protein” value runs as follows: (input ligand: FMN 200 uM) 14 nM; under setting [4], 12.6 nM; (input ligand: none) 42.1 nM.

On to “AUGGAGACCGGAGGAUAUGGACCAACAAUCGGUCCAGAAGGCUGCCCAUGGUAUACAUGAGGAUCACCCAUGUGGCCGCGGAGA [Eternabot solution 13] (Eterna round: R96, puzzle: Same State NG 1)”, for which the “apparent KD of MS2 coat protein” value (input ligand: FMN 200 uM) stood at 65.8 nM, the “apparent KD of MS2 coat protein” value under setting [4] came to 69.2 nM and the “apparent KD of MS2 coat protein” value (input ligand: none) was 102 nM.

Consider “AUUAUACAUGAGGAUCACCCAUGUCAAUGUAGUCGAGGAUAUGGGUUGCUAUGAGGCGUACUAGAAGGCGAGGAGA [Mat - Same State 1 - Mod of JL - D17] (puzzle: Same State 1)”, for which the “apparent KD of MS2 coat protein” value is, setting by setting: under setting [1], 61.5 nM; under setting [2], 99.9 nM; under setting [3], 82.8 nM.

Consider “AUUAUUUAUGCAGGAUAUGAUUAACAUGAGGAUCACCCAUGUGGUGUUGUGAGUAAGGAGAGUGAUCAGAAGGGCAUUUCUUUU [JMF's solution 49] (Eterna round: R96, puzzle: Same State NG 2)”, for which the “apparent KD of MS2 coat protein” value is 596 nM (input ligand: FMN 200 uM), 315 nM under setting [4] and 492 nM (input ligand: none).

For the sequence “AUUAUUUAUGCAGGAUAUGAUUAACAUGAGGAUCACCCAUGUGGUGUUGUGAGUAAGGAGAGUGAUCAGAAGGGCAUUUUUUCU [JMF's solution 55] (Eterna round: R96, puzzle: Same State NG 2)”, the “apparent KD of MS2 coat protein” value runs as follows: (input ligand: FMN 200 uM) 460 nM; under setting [4], 361 nM; (input ligand: none) 490 nM.

Turning to “AUUCGUUUGAUAGGAUAUCGCUAUACAUGAGGAUCACCCAUGUUUACCACGCUGGUUUUUCGUACCGAGAAGGAUUCUGAUGAU [JL JR sub007 mod 3] (Eterna round: R96, puzzle: Same State NG 2)”, the “apparent KD of MS2 coat protein” value is, setting by setting: (input ligand: FMN 200 uM) 35.4 nM; under setting [4], 27.3 nM; (input ligand: none) 41.4 nM.

Turning to “AUUGCUUACGCAGGAUAUGAUGUGGAAACUGCGUCAGAAGGGUGAACAGAAUCGUUGCAAGAAGACAUGAGGAUCACCCAUGUC [SameState NG1 #97] (Eterna round: R96, puzzle: Same State NG 1)”, the “apparent KD of MS2 coat protein” value reads like this: (input ligand: FMN 200 uM) 42 nM; under setting [4], 34.9 nM; (input ligand: none) 39 nM.

In the case of “AUUUAACAAGCUUUUUGCUCGUCUUAUAAACAUGAGGAUCACCCAUGUAAUAGCGUGAGAGUAAUUAUAUUAAUUAU [JMF 101] (puzzle: Sensor for hsa-mir-208a)”, the “apparent KD of MS2 coat protein” value is 14.7 nM under setting [1], 36 nM under setting [2] and 14.7 nM under setting [3].

Consider “AUUUAACAAGCUUUUUGCUCGUCUUAUAAACAUGAGGAUCACCCAUGUAAUAGCGUGAGAGUUAUUAUAUAAAUAAU [JMF 87] (puzzle: Sensor for hsa-mir-208a)”, for which the “apparent KD of MS2 coat protein” value runs as follows: under setting [1], 18 nM; under setting [2], 33.1 nM; under setting [3], 16.7 nM.

Take “AUUUUUAAUGCAGGAUAUGAUUAACAUGAGGAUCACCCAUGUGGUGUUGUGAGUAAGGAGAGUGAUCAGAAGGGCAUUUUUUUG [JMF's solution 90] (Eterna round: R96, puzzle: Same State NG 2)”: the “apparent KD of MS2 coat protein” value stood at 753 nM (input ligand: FMN 200 uM), 287 nM under setting [4] and 458 nM (input ligand: none).

On to “CAAACCGACACAGGAUAUGGAGCCGACCGGCACAUGAGGAUCACCCAUGUGCUACAGGUAUGUAGCUAGAAGGGUGAAGGUAUC [Eternabot solution 29] (Eterna round: R96, puzzle: Same State NG 2)”, for which the “apparent KD of MS2 coat protein” value stood at 48.5 nM (input ligand: FMN 200 uM), 56.9 nM under setting [4] and 118 nM (input ligand: none).

Turning to “CAAACUUAGUAGGGUAGGUACCCAGGAUGACAUGAGGAUCACCCAUGUAAGAGCUUUUUGCUCGUCAUUAACAGUUG [JR_SHM208a_Sub018] (puzzle: Sensor for hsa-mir-208a)”, the “apparent KD of MS2 coat protein” value reads like this: under setting [1], 57.5 nM; under setting [2], 102 nM; under setting [3], 74.5 nM.

For “CAAGAAAACGCAGGAUAUACCCGGACAACCCGGGUAGAAGGGUGACACAUGAGGAUCACCCAUGUACAUGGCAAUAACCAUGGA [Sobiais] (Eterna round: R96, puzzle: Same State NG 1)”, the “apparent KD of MS2 coat protein” value runs as follows: (input ligand: FMN 200 uM) 15.2 nM; under setting [4], 10.7 nM; (input ligand: none) 35.4 nM.
